Patent US11555069B2, “Cognitive function improving agent” (Kao Corporation, priority 2016, dated 2023)

T1: GIP(1-42) (Homo sapiens, UniProt P09681)
T1 sequence (P09681 52-93): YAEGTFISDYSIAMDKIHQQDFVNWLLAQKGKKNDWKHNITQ

T2: GIP(3-42) (Homo sapiens, UniProt P09681)
T2 sequence (P09681 54-93): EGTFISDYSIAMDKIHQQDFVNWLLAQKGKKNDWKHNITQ

B1: monoclonal antibody prepared in Production Example 1: anti-active GIP monoclonal antibody produced by hybridoma 9B9H5-B9 line; H-chain variable region SEQ ID NO: 2, L-chain variable region SEQ ID NO: … (antibody, listed as Mus musculus, V domains shown)
VH: QVQLQQPGAELVKPGASVKLSCKASGYTFTSFWMHWVIQRPGQGLEWIGEMNPSDGRTHFNEKFKTKATLTIDTSSNTAYMELNSLTSEDSAVYYCARRMEDWGQGTLVTVSA
VL: DIKMTQSPSSMYASLGERVTITCKASQDINSYLGWFQQKPGKSPKTLIYGANRLVDGVPSRFSGSGSGQDYSLTISSLEYDDMGIYYCLQYDEFPLTFGAGTKLELKR

Key:
db/db mice [1] = experiment: Y-maze (short-term memory) test, Example 1; assay type: in vivo, mouse; conditions: db/db mice 30-week-old, i.p. twice a week, 20 days after start (after seven administrations); GIP 5 nmol/kg, anti-GIP antibody 1 mg/kg; FIG. 2
Protocol: (§1) Six-week-old leptin receptor deficient C57BLKS/J male mice (db/db mice, Oriental Yeast Co., Ltd.) were transferred (room temperature: 23° C., humidity: 55±10%, light period: 7:00 to 19:00) and were fed with food and water ad libitum. The food was CE-2 (CLEA Japan, Inc.), and the mice were acclimated for 2 weeks under the above-mentioned environment and were then used for testing.
(§2) Mouse-derived GIP (manufactured by AnaSpec, Inc.) was dissolved in physiological saline at a concentration of 500 nM to give a GIP solution. […]
(§3) The test was performed 10 days before the start of the administration and 20 days after the start of the administration (after seven administrations) to measure the short-term memory and learning ability (working memory). Each mouse was placed at an end of a plastic Y-maze (manufactured by Noldus Information Technology) in which the arms each have a length of 40 cm and a height of 12 cm and form an angle of 120° with each other, and the behavior of the mouse was video-recorded for 10 minutes to measure the order and the number of entries into the arms. The score of short-term memory and learning ability was evaluated by the spontaneous alternation behavior change rate (see the following calculation formula). […]

db/db mice [2] = experiment: Novel object recognition (long-term memory) test, Example 1; assay type: in vivo, mouse; conditions: db/db mice 30-week-old, i.p. twice a week, 15 days after start (after six administrations); GIP 5 nmol/kg, anti-GIP antibody 1 mg/kg; FIG. 3
Protocol: as §1, §2
The test was performed 5 days before the start of the administration and 15 days after the start of the administration (after six administrations) to measure the long-term memory and learning ability (reference memory). […] On the following day, two identical objects (rubber objects wrapped with blue rubber tape: columns each having 4 cm diameter and 3.5 cm height) were placed in the box (at a position with a space of 10 cm in length and 10 cm in width from the wall), and the behavior of the mouse was video-recorded for 5 minutes to measure the number of recognitions (the number of times the mouse approached each object within 1 cm) (training trial, on the 14th day from the start of the administration). […] The score of long-term memory and learning ability was evaluated by the recognition rate of the novel object in the retention trial (see the following calculation formula). […]

GIP(1-42) = target: T1, GIP(1-42); experiment: Sandwich ELISA, reactivity with active GIP; assay type: binding; conditions: biotinylated antibody 1 μg/mL as detection antibody, GIP 8.2 to 2000 pg/mL, FIG. 1
Protocol: (§4) The reactivity between the monoclonal antibody prepared in Production Example 1 and active GIP was confirmed by ELISA. The amino group of the anti-active GIP monoclonal antibody was biotinylated with NH2 group biotinylation kit (manufactured by Dojindo Laboratories). ELISA was performed using the produced biotinylated anti-active GIP monoclonal antibody at 1 μg/mL instead of a detection antibody, GIP detection antibody (biotinylated anti-total GIP monoclonal antibody), included in Human (total) GIP ELISA kit (manufactured by EMD Millipore Corporation). A […] dilution series of GIP(1-42) or GIP(3-42) was prepared in 6 steps (8.2 to 2000 pg/mL) with a 2000 pg/mL solution as the highest concentration. By using an anti-total GIP monoclonal antibody (included in Human GIP (total) ELISA kit manufactured by EMD Millipore Corporation) as a capture antibody, the biotinylated anti-active GIP monoclonal antibody as a detection antibody, and a peroxidase-streptavidin conjugate for detection, sandwich ELISA was conducted to prepare a calibration curve with GIP concentration on the X-axis and 450 nm-590 nm absorbance on the Y-axis (FIG. 1).

GIP(3-42) = target: T2, GIP(3-42); experiment: Sandwich ELISA, cross-reactivity with inactive GIP; assay type: binding; conditions: biotinylated antibody 1 μg/mL as detection antibody, GIP 8.2 to 2000 pg/mL, FIG. 1
Protocol: as §4

[3] = target: T3, PEGylated N-terminus 15 amino acids of active GIP (GIP(1-15)) (Homo sapiens, UniProt P09681); experiment: Hybridoma screening/cloning ELISA with immobilized antigen (1); assay type: binding; conditions: hybridoma culture supernatant, immobilized PEGylated GIP(1-15)
T3 construct: PEGylated N-terminus 15 amino acids of active GIP (GIP(1-15)); made in house; host or cells: peptide synthesis (no expression host)
Protocol: (§5) Polyethylene glycol was added to N-terminus 15 amino acids of active GIP (GIP(1-15)) (PEGylation (polyethylene glycolation)), and keyhole limpet hemocyanin (KLH) was then chemically bonded thereto to produce KLH-linked PEGylated GIP (1-15) as an immunogen.

[4] = target: T4, PEGylated N-terminus 13 amino acids of inactive GIP (GIP(3-15)) (Homo sapiens, UniProt P09681); experiment: Hybridoma screening/cloning ELISA with immobilized antigen (2); assay type: binding; conditions: hybridoma culture supernatant, immobilized PEGylated GIP(3-15)
T4 construct: made in house; host or cells: peptide synthesis (no expression host)
Protocol: as §5

[5] = test system: C57BL/6J mice (107-week-old); experiment: Y-maze (short-term memory) test in aged mice, Example 3; assay type: in vivo, mouse; conditions: aged C57BL/6J mice (107-week-old), 0.5 mg/kg i.p. once a week, 6 times; compared to non-administration and control group; FIG. 5
Protocol: (§6) Four-week-old C57BL/6J male mice (CLEA Japan, Inc.) were transferred (room temperature: 23° C., humidity: 55±10%, light period: 7:00 to 19:00) and were fed with food (D12450K, Research Diets, Inc.) and water ad libitum for 111 weeks.
(§7) The anti-active GIP antibody produced in Production Example 1 was dissolved in physiological saline at a concentration of 0.05 mg/mL to give an anti-GIP antibody solution.
(§8) Physiological saline (control group) or the anti-GIP antibody solution (0.5 mg/kg body weight) (anti-GIP antibody administration group) was intraperitoneally administered to C57BL/6J mice (107-week-old) once a week (9:00 to 10:00 a.m.), 6 times in total.
as §3, with “1 week” for “10 days”, “1 week” for “20 days”, “two administrations), 3 weeks after the start (after four administrations), and 5 weeks after the start (after six” for “seven”, “arms.” for “arms. The score of short-term memory and learning ability was evaluated by the spontaneous alternation behavior change rate (see the following calculation formula).”

[6] = test system: C57BL/6J mice (107-week-old); experiment: Novel object recognition (long-term memory) test in aged mice, Example 3; assay type: in vivo, mouse; conditions: aged C57BL/6J mice (107-week-old), 0.5 mg/kg i.p. once a week, 5 weeks after start; compared to control group; FIG. 6
Protocol: as §6, §7, §8
The test was performed 5 weeks after the start of the administration to measure the long-term memory and learning ability (reference memory). […] On the following day, two identical objects (rubber objects wrapped with blue rubber tape: columns each having 4 cm diameter and 3.5 cm height) were placed in the box (at a position with a space of 10 cm in length and 10 cm in width from the wall), and the behavior of the mouse was video-recorded for 5 minutes to measure the number of recognitions (the number of times the mouse approached each object within 1 cm) (training trial). […]

Row | Molecule | spontaneous alternation behavior change rate (short-term memory and learning ability) (db/db mice [1]) | novel object recognition rate (long-term memory and learning ability) (db/db mice [2]) | reactivity with GIP(1-42) (450 nm-590 nm absorbance) (GIP(1-42)) | cross-reactivity with GIP(3-42) (450 nm-590 nm absorbance) (GIP(3-42)) | ELISA reaction with antigen (1) for measurement [3] | ELISA reaction with antigen (2) for measurement [4] | spontaneous alternation behavior change rate (short-term memory and learning ability) [5] | novel object recognition rate (long-term memory and learning ability) [6]
1 | GIP: Mouse-derived GIP (manufactured by AnaSpec, Inc.) dissolved in physiological saline at 500 nM (YAEGTFISDYSIAMDKIRQQDFVNWLLAQRGKKSDWKHNITQ; Gastric inhibitory polypeptide; UniProt P48756 44-85, looked up) | a decrease in the spontaneous alternation behavior change rate (short-term memory and learning ability) was observed | a decrease in the novel object recognition rate (long-term memory and learning ability) was observed | – | – | – | – | – | –
2 | B1 | – | – | capable of specifically detecting GIP(1-42) | does not show cross-reactivity with GIP(3-42) | positive for the antigen (1) | negative for the antigen (2) | an increase in the spontaneous alternation behavior change rate (short-term memory and learning ability) was observed | an increase in the novel object recognition rate (long-term memory and learning ability) was observed
